Measurements published in article PMC1636435 (Nucleic Acids Research, 2006).
Each block holds one molecule with its values, some of them ahead of it.

B1: RAD51AP1-C89 (C-terminal 89 amino acids of human RAD51AP1) (domain or fragment)
chain: APAAVKSESQSLPKKVSLSSDTTRKPLEIRSPSAESKKPKWVPPAASGGSRSSSSPLVVVSVKSPNQSLRLGLSRLARVKPLHPNATST
B2: human RAD51AP1 (Gal4 two-hybrid fusion, all of RAD51AP1) (natural protein)
chain: MVRPVRHKKPVNYSQFDHSDSDDDFVSATVPLNKKSRTAPKELKQDKPKPNLNNLRKEEIPVQEKTPKKRMALDDKLYQRDLEVALALSVKELPTVTTNVQNSQDKSIEKHGSSKIETMNKSPHISNCSVASDYLDLDKITVEDDVGGVQGKRKAASKAAAQQRKILLEGSDGDSANDTEPDFAPGEDSEDDSDFCESEDNDEDFSMRKSKVKEIKKKEVKVKSPVEKKEKKSKSKCNALVTSVDSAPAAVKSESQSLPKKVSLSSDTTRKPLEIRSPSAESKKPKWVPPAASGGSRSSSSPLVVVSVKSPNQSLRLGLSRLARVKPLHPNATST
B3: human RAD51 (Gal4 two-hybrid fusion) (natural protein)
chain: MAMQMQLEANADTSVEEESFGPQPISRLEQCGINANDVKKLEEAGFHTVEAVAYAPKKELINIKGISEAKADKILAEAAKLVPMGFTTATEFHQRRSEIIQITTGSKELDKLLQGGIETGSITEMFGEFRTGKTQICHTLAVTCQLPIDRGGGEGKAMYIDTEGTFRPERLLAVAERYGLSGSDVLDNVAYARAFNTDHQTQLLYQASAMMVESRYALLIVDSATALYRTDYSGRGELSARQMHLARFLRMLLRLADEFGVAVVITNQVVAQVDGAAMFAADPKKPIGGNIIAHASTTRLYLRKGRGETRICKIYDSPCLPEAEAMFAINADGVGDAKD

Legend:
Test in all cases: two-hybrid
[1] = biological target: human RAD51 (Gal4 two-hybrid fusion) (human) (UniProt Q06609)
[2] = biological target: Two larger fragments, each containing RAD54 79-118
[3] = biological target: RAD51AP2-C33 (C-terminal 33 amino acids of human RAD51AP2) (human) (UniProt Q09MP3)
Chain of RAD51AP2-C33 (C-terminal 33 amino acids of human RAD51AP2) (human) (Q09MP3 whole entry): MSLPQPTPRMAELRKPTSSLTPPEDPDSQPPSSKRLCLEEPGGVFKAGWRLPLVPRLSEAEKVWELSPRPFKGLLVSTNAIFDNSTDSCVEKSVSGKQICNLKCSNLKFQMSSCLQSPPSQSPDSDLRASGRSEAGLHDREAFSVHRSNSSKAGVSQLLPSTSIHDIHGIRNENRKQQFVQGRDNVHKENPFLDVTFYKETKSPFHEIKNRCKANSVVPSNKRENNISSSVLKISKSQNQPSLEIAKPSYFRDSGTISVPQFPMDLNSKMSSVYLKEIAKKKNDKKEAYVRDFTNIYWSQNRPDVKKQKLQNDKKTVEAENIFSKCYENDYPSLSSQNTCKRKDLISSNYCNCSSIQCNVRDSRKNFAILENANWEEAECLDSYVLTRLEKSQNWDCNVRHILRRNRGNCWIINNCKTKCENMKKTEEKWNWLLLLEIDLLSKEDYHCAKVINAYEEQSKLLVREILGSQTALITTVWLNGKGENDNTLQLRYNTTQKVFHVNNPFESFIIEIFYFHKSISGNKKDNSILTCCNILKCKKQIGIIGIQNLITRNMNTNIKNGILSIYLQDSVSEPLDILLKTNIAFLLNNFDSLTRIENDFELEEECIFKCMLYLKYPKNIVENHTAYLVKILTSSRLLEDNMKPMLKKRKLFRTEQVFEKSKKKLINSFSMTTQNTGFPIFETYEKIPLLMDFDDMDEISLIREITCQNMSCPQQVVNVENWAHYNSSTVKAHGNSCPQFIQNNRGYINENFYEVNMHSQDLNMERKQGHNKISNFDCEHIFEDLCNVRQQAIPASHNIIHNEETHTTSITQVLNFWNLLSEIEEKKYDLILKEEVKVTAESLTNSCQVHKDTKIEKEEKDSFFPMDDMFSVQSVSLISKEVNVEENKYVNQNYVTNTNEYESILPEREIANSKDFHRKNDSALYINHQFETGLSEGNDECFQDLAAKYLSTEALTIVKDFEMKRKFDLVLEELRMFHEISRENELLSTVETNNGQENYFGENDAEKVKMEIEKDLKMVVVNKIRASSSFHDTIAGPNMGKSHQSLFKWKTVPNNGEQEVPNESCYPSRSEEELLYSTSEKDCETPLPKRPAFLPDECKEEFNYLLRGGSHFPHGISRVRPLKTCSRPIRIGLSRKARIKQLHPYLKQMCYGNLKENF

[4] = biological target: RAD51AP2-C92 (last 92 amino acids of human RAD51AP2) (human) (UniProt Q09MP3)
Chain of RAD51AP2-C92 (last 92 amino acids of human RAD51AP2) (human) (Q09MP3 1068-1159): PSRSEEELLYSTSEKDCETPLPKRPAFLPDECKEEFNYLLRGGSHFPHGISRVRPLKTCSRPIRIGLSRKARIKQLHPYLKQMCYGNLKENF

[5] = biological target: human RAD51AP1 (Gal4 two-hybrid fusion, all of RAD51AP1) (human) (UniProt Q96B01)
[6] = biological target: Saccharomyces cerevisiae RAD51 (Gal4 two-hybrid fusion) (Saccharomyces cerevisiae) (UniProt P25454)
Chain of Saccharomyces cerevisiae RAD51 (Gal4 two-hybrid fusion) (Saccharomyces cerevisiae) (P25454 whole entry, the tested form may be a part): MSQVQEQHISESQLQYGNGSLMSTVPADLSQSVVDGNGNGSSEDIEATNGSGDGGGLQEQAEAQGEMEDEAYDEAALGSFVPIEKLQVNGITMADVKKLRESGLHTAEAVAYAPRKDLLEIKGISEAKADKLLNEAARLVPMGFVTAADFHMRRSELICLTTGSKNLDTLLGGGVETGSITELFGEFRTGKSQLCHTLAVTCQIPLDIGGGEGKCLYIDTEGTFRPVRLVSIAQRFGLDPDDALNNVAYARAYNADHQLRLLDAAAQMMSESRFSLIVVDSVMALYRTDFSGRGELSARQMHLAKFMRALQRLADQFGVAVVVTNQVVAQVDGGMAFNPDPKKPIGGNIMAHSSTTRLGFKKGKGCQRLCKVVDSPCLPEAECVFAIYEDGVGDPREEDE

[7] = biological target: human DMC1 (Gal4 two-hybrid fusion) (human) (UniProt Q14565)
Chain of human DMC1 (Gal4 two-hybrid fusion) (human) (Q14565 whole entry, the tested form may be a part): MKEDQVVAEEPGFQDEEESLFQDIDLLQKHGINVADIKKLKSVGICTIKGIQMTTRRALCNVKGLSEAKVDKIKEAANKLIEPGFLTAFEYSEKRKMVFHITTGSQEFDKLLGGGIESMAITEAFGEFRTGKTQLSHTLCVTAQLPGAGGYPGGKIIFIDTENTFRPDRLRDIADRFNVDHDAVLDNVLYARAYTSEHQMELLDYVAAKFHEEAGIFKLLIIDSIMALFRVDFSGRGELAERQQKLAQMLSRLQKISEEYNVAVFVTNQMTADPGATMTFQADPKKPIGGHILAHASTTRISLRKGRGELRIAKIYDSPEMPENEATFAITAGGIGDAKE

[8] = biological target: B3
[9] = biological target: B2
[10] = biological target: B1
[11] = biological target: T1, RAD51AP1-C25 (C-terminal 25 residues of human RAD51AP1) (human, UniProt Q96B01-2 311-335)
T1 chain: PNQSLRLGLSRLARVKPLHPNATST

Molecule: B1
units of β-galactosidase [8]: 24.6 units of β-galactosidase

Molecule: B2
units of β-galactosidase [8]: 111 units of β-galactosidase

Molecule: B3
units of β-galactosidase [9]: 590 units of β-galactosidase | units of β-galactosidase [10]: 420 units of β-galactosidase | units of β-galactosidase [11]: 473 units of β-galactosidase

Continued, values first:

units of β-galactosidase (units of β-galactosidase) [1]: 143
Molecule: RAD51AP2-C92 (last 92 amino acids of human RAD51AP2) (from UniProt Q09MP3 1068-1159) (domain or fragment)

percent of the interaction of RAD54-N142 with RAD51 [2]: > 70% | units of β-galactosidase (units of β-galactosidase) [3]: 395 | units of β-galactosidase (units of β-galactosidase) [4]: 521
Molecule: human RAD51 (Gal4 two-hybrid fusion) (from UniProt Q06609 1-339) (natural protein)

units of β-galactosidase (units of β-galactosidase) [5]: < 0.3 | units of β-galactosidase (units of β-galactosidase) [1]: 301 | units of β-galactosidase (units of β-galactosidase) [6]: < 0.3 | units of β-galactosidase (units of β-galactosidase) [7]: < 0.3
Molecule: RAD51AP2-C321 (C-terminal 321 amino acids of human RAD51AP2) (from UniProt Q09MP3 839-1159) (domain or fragment)
